Assay results: US20210145976A1 (ARO BIOTHERAPEUTICS, published 2021)

B1: SEQ ID NO 199 (designed binder)
chain: MLPAPKNLVVSRVTEDSARLSWTAPDAAFDSFGIRYFEWWDLGEAIVLTVPGSERSYDPTGLKPGTEYNVTIQGVKGGFPSMPLSAIFTT
notes: FN3 domain
B2: SEQ ID NO 201 (designed binder)
chain: MLPAPKNLVVSRVTEDSARLSWTAPDAAFDSFNIDYWETWVIGEAIVLTVPGSERSYDLTGLKPGTEYEVIIPGVKGGTISPPLSAIFTT
notes: FN3 domain
B3: SEQ ID NO 203 (designed binder)
chain: MLPAPKNLVVSRVTEDSARLSWTAPDAALDSFRIEYYESYGHGEAIVLTVPGSERSYDLTGLKPGTEYDVGIYGVKGGYYSRPLSAIFTT
notes: FN3 domain
B4: SEQ ID NO 204 (designed binder)
chain: MLPAPKNLVVSRVTEDSARLPWTAPDAAFDSFWISYYESVGYGEAIVLTVPGSERSYDLTGLKPGTEYYVDISGVKGGVYSLPLSAIFTT
notes: FN3 domain
B5: SEQ ID NO 206 (designed binder)
chain: MLPAPKNLVVSRVTEDSARLSWTAPDAAFDSFDIEYDELWKNGEAIVLTVPGSERSYDLTGLKPGTEYRVFIYGVKGGYGSFPLSAIFTT
notes: FN3 domain
B6: SEQ ID NO 208 (designed binder)
chain: MLPAPKNLVVSRVTEDSARLSWTAPDAAFDSFGIVYREPYVGGEAIVLTVPGSERSYDLTGLKPGTEYGVPIPGVKGGYDSGPLSAIFTT
notes: FN3 domain
B7: SEQ ID NO 209 (designed binder)
chain: MLPAPKNLVVSRVTEDSARLSWTAPDAAFDSFTIPYIEYVWWGEAIVLTVQGSERSYDLTGLKPGTEYPVTIGGVKGGSRSHPLHAHFTT
notes: FN3 domain
B8: SEQ ID NO 218 (designed binder)
chain: MLPAPKNLVVSRVTEDSARLSWTAPDAAFDSFTILYYEMVGEGEAIVLTVPGSERSYDLTGPKPGTEYWVDIYGVKGGGWSRPLSAIFTT
notes: FN3 domain
B9: SEQ ID NO 221 (designed binder)
chain: MLPAPKNLVVSRVTEDSARLSWTAPDAAFDSFHISYQEVVAEGEAIYLRVPGSERSYDLTGLKPGTEYYVLIHGVKGGYESKPLDASFTT
notes: FN3 domain
B10: SEQ ID NO 224 (designed binder)
chain: MLLAPKNLVVSRVTEDSARLSWTAPDAAFDSFRYLEQGLYGEAIVLTVPGSERSYDLTGLKPGTEYWVEIIGVKGGEYSTPLSAIFTT
notes: FN3 domain
B11: SEQ ID NO 225 (designed binder)
chain: MLPAPKNLVVSRVTEDSARLSWTAPDAAFDSFKIEYFEYVGYGEAIVLTVPGSERSYDLTGLKPGTEYYVAIYGVKGGWYSRPLSAIFTT
notes: FN3 domain
B12: SEQ ID NO 227 (designed binder)
chain: MLPAPKNLVVSRVTEDSARLSWTAPDAAFDSFRIRYLEWWNIGEAIVLTVPGSERSYDLTGLKPGTEYHVDIWGVKGGYSSYPLSAIFTT
notes: FN3 domain
B13: SEQ ID NO 229 (designed binder)
chain: MLPAPKNLVVSRVTEDSARLSWTAPDAAFDSFSIHYDEDWRRGEAIVLTVPGSERSYDLTGLKPGTEYLVEIPGVKGGKASYPLSAIFTT
notes: FN3 domain
B14: SEQ ID NO 230 (designed binder)
chain: MLPAPKNLVVSRVTEDSARLSWTAPDAAFDSFQIRYPKRWISGEAIVLTVPGSERSYDLTGLKPGTEYEVVIRGVKGGEYSWPLSAIFTT
notes: FN3 domain
B15: SEQ ID NO 231 (designed binder)
chain: MLPAPKNLVVSRVTEDSARLSWTAPDAAFDSFEIPYIETVALGEAIVLTVPGSERSYDLTGLKPGTEYYVEIYGVKGGSYSYPLSAISTT
notes: FN3 domain
B16: SEQ ID NO 232 (designed binder)
chain: MLPAPKNLVVSRVTEDSARLSWTAPDAAFDSFTIAYDETLNLGEAIVLTVPGSERSYDLTGLKPGTEYIVGIFGVKGGTHSWPLSAIFTT
notes: FN3 domain
B17: SEQ ID NO 234 (designed binder)
chain: MLPAPKNLVVSRVTEDSARLSWTAPDAAFDSFYITYWETWDYGEAIVLTVPGSERSYDLTGLKPGTEYKVPITGVKGGGPSVPLSAIFTT
notes: FN3 domain
B18: SEQ ID NO 239 (designed binder)
chain: MLPAPKNLVVSRVTEDSARLSWTAPDAAFDSFAITYYEGRWRGEAIVLTVPGSERSYDLTGLKPGTEYGVPIRGVKGGTGSLPLSAIFTT
notes: FN3 domain
B19: SEQ ID NO 241 (designed binder)
chain: MLPAPKNLVVSRVTEDSARLSWTAPDAAFDSFNIYYYEWFVSGEAIVLTVPGSERSYDLTGLKPGTEYFVDIDGVKGGYRSRPLSAIFTT
notes: FN3 domain
B20: SEQ ID NO 242 (designed binder)
chain: MLPAPKNLVVSRVTEDSARLSWTAPDAAFDSFPIKYLEWWSWGEAIVLTVPGSERSYDLTGLKPGTEYRVPISGVKGGGMSGPLSAIFTT
notes: FN3 domain
B21: SEQ ID NO 244 (designed binder)
chain: MLPAPKNLVVSRVTEDSARLSWTAPDAAFDSFHIDYSEFHLRGEAIVLTVPGSERSYDLTGLKPGTEYLGIFGVKGGEQSGPLSAIFTT
notes: FN3 domain
B22: SEQ ID NO 247 (designed binder)
chain: MLPAPKNLVVSRVTEDSARLSWTAPDAAFDSFYIEWTYKGEAIVLTVPGSERSYDLTGLKPGTEYFVGIPGVKGGKSSYPLSAIFTT
notes: FN3 domain
B23: SEQ ID NO 248 (designed binder)
chain: MGSLPAPKNLVVSRVTEDSARLSWTAPDAAFDSFAIPYAEPSPTGEAIVLTVPGSERSYDLTGLKPGTEYPVWIQGVKGGSPSAPLSAEFTT
notes: FN3 domain
B24: SEQ ID NO 249 (designed binder)
chain: MLPAPKNLVVSRVTEDSARLSWTAPDAAFDSFSIDYFESVGFGEAIVLTVPGSERSYDLTGLKPGTEYDVQITGVKGGPHSLPLSAIFTT
notes: FN3 domain
B25: SEQ ID NO 253 (designed binder)
chain: MLPAPKNLVVSRVTEDSARLSWTAPDAAFDSFTIEYWETIGGGEAIVLTVPGSERSYDLTGLKPGTEYYVGIYGVKGGWWSRPLSAIFTT
notes: FN3 domain
B26: SEQ ID NO 260 (designed binder)
chain: MLPAPKNLVVSRVTEDSARLSWTAPDAAFDSFNISYYEYFVHGEAIVLTVPGSERSYDLTGLKPGTEYYVIDGVKGGDPSEPLSAIFTT
notes: FN3 domain
B27: SEQ ID NO 266 (designed binder)
chain: MLPAPKNLVVSRVTEDSARLSWTAPDAAFDSFMIRYQEGTRWGEAIVLTVPGSERSYDLTGLKPGTEYIVMIAGVKGGQISLPLSAIFTT
notes: FN3 domain
B28: SEQ ID NO 270 (designed binder)
chain: MLPAPKNLVVSRVTEDSARLSWTAPDAAFDSFLIRYQEWQRWGEAIVLTVPGSERSYDLTGLKPGTEYTVHIAGVKGGMLSLPLSAIFTT
notes: FN3 domain
B29: SEQ ID NO 269 (designed binder)
chain: MLPAPKNLVVSRVTEDSARLSWTAPDAAFDSFHINYAEVYTKGEAILLTVPGSERSYDLTGLKPGTEYEVYIPGVKGGPFSRPLNAQFTT
notes: FN3 domain
B30: SEQ ID NO 273 (designed binder)
chain: MLPAPKNLVVSRVTEDSARLSWTAPDAAFDSFTIFKDGEAIVLTVPGSERSYDLTGLKPGTEYYVYIYGVKGGYPSKPLSAIFTT
notes: FN3 domain
B31: SEQ ID NO 274 (designed binder)
chain: MLPAPKNLVVSRVTEDSVRLSWTAPDAAFDSFAISYEEWWVHGEAIVLTVPGSERSYDLTGLKPGTEYSVVIPGVKGGLYSWTLSAISTT
notes: FN3 domain
B32: SEQ ID NO 277 (designed binder)
chain: MLPAPKNLVVSRVTEDSARLSWTAPDAAFDSFWINYYEGIGEGEAIVLTVPGSERSYDLTGLKPGTEYYVDISGVKGGSYSLPLSAIFTT
notes: FN3 domain
B33: SEQ ID NO 281 (designed binder)
chain: MLPAPKNLVVSRVTEDSARLSWTAPDAAFDSFYIDYDEIHDWGEAIVLTVPGSERSYDLTGLKPGTEYAVQIGGVKGGSFSWTLSAIFTT
notes: FN3 domain
B34: SEQ ID NO 286 (designed binder)
chain: MLPAPKNLVVSRVTEDSARLSWTAPDAAFDSFNIYYPEFPVRGEAIVLTVPGSERSYDLTGLKPGTEYVVSIWGVKGGTQSWPLSAIFTT
notes: FN3 domain
B35: SEQ ID NO 290 (designed binder)
chain: MLPAPKNLVVSRVTEDSARLSWTAPDAAFDSFFYLEQAWGGEAIVLTVPGSERSYDLTGLKPGTEYWVEITGVKGGYASSPLSAIFTT
notes: FN3 domain
B36: SEQ ID NO 291 (designed binder)
chain: MLPAPKNLVVSRVTEDSARLSWTAPDAAFDSFHIEYEEPETEGEAIYLHVPGSERSYDLTGLKPGTEYKVLIRGVKGGSYSIPLQAPFTT
notes: FN3 domain

Experiments:
[1] = target: T1, recombinant biotinylated CD71 extracellular domain (Sino Biologics) with an N-terminal 6His tag (human, UniProt P02786 89-760, biotinylated (sites not given)); assay: screening ELISA, ratio
T1 construct: extracellular domain; also called hCD71; huCD71
T1 sequence (P02786 other isoform, or with tags, fused parts or gaps): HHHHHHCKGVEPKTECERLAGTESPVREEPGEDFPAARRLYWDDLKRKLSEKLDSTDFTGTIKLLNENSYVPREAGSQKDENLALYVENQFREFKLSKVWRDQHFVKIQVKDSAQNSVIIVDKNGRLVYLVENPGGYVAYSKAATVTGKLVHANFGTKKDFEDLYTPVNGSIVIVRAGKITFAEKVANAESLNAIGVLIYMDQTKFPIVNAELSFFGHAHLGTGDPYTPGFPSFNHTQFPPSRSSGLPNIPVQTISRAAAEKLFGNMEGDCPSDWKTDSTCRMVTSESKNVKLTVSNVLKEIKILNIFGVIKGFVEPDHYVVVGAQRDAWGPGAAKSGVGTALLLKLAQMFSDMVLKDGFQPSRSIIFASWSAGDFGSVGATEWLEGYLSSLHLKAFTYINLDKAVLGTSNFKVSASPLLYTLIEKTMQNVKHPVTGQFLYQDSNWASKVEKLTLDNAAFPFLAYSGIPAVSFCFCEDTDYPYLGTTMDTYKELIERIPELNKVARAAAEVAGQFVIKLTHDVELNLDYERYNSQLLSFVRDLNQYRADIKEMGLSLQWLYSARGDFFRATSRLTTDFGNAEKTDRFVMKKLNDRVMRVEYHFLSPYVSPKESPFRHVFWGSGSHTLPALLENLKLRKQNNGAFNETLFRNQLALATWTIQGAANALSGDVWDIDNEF

[2] = target: T1, recombinant biotinylated CD71 …; assay: screening ELISA

Binder	hCD71:HSA [1]	hCD71 [2]
B1	101	1.46e+06
B2	106	1.2e+06
B3	1020	3.38e+06
B4	113	2.77e+06
B5	314	833000
B6	49	2.29e+06
B7	57	790000
B8	71	2.39e+06
B9	537	1.96e+06
B10	122	2.02e+06
B11	210	2.96e+06
B12	1680	3.85e+06
B13	154	570000
B14	1050	2e+06
B15	86	2.27e+06
B16	629	1.7e+06
B17	94	680000
B18	83	419000

Binder	hCD71:HSA [1]	hCD71 [2]
B19	1230	2.7e+06
B20	178	872000
B21	330	545000
B22	17	916000
B23	55	832000
B24	148	1.05e+06
B25	1140	2.8e+06
B26	90	1.3e+06
B27	337	894000
B28	754	1.81e+06
B29	166	690000
B30	508	4.65e+06
B31	44	522000
B32	598	3.11e+06
B33	48	1.07e+06
B34	118	1.27e+06
B35	237	2.81e+06
B36	1780	3.83e+06
